Legend:
[1] = biological target: 3-hydroxypropionyl-CoA dehydratase from Sulfolobus tokodaii, SEQ ID NO: 3 (Uniprot F9VNG3) (Sulfurisphaera tokodaii, UniProt F9VNG3); experiment: Kinetic parameters of the dehydration of 4-hydroxy-2-butanone to 3-buten-2-one; type: biochemical; settings: 0-300 mM 4-hydroxy-2-butanone, 20 mM MgCl2, pH 7.5, 37° C
Procedure: Each assay was started with the addition of a specific enzyme at a final concentration of 4 mg/ml. Control assays were performed in which either no enzyme was added, or no substrate was added. Test tubes were incubated for 23 hours with shaking at 37° C. Reaction products were extracted with an equal volume of ethyl acetate and then analyzed by HPLC. Commercial 3-buten-2-one (Sigma) was used as reference. […] The mobile phase consisted of 98:2 (v/v) H2O/Acetonitrile containing 8.4 mM sulfuric acid. Retention time of 3-buten-2-one under these conditions was 5.4 min.
Kinetic parameters of the reaction were determined for purified recombinant 3-hydroxypropionyl-CoA dehydratase from Sulfolobus tokodaii under the following conditions:
4 mg/ml 3-Hydroxypropionyl-CoA dehydratase S. tokodaii
Test tubes were incubated for 0, 20, 60, 120 and 180 min with shaking at 37° C. The formation of 3-buten-2-one was quantified using commercial 3-buten-2-one according to the procedure described in Example 4.

[2] = biological target: linalool dehydratase-isomerase from Castellaniella defragrans (formerly Alcaligenes defragrans), SEQ ID NO: 19 (Castellaniella defragrans, UniProt E1XUJ2); experiment: 1,3-butadiene production from 3-buten-2-ol (GC/FID); type: biochemical; settings: 0-80 mM 3-buten-2-ol, cell lysate with recombinant enzyme, 2 mM DTT, pH 7.5, 37° C, 1-22 hours
Description: The sequence of linalool dehydratase-isomerase inferred from the genome of Castellaniella defragrans (formerly Alcaligenes defragrans) was generated by oligonucleotide concatenation to fit the codon usage of E. coli. A stretch of 6 histidine codons was inserted after the methionine initiation codon to provide an affinity tag for purification. The gene thus synthesized was cloned in a pET25b(+) expression vector (the vector was constructed by GeneArt AG). Competent E. coli BL21(DE3) cells (Novagen) were transformed with this vector according to the heat shock procedure. As negative control, E. coli BL21(DE3) strain was transformed with empty vector. The transformed cells were grown with shaking (160 rpm) on ZYM-5052 auto-induction medium (Studier F W, Prot. Exp. Pur. 41 (2005), 207-234) for 6 hours at 37° C. and protein expression was continued at 18° C. overnight (approximately 12 hours). The cells were collected by centrifugation at 4° C., 10,000 rpm for 20 min and the pellets were frozen at −80° C.
The pellets from 100 ml of culture cells were thawed on ice and resuspended in 4 ml of 50 mM Tris-HCl pH 7.5. […] Protein concentration was determined using the Bradford method (Biorad). […]
0.25 ml of cell lysate containing recombinant linalool dehydratase-isomerase was added to 0.5 ml of reaction mixture. […] 1,3-butadiene production was analyzed by GC/FID procedure. […]

[3] = biological target: T1, Secondary alcohol dehydrogenase from Rhodococcus ruber, SEQ ID NO: 12 (Uniprot Q8KLT9) (Rhodococcus ruber, UniProt Q8KLT9); experiment: Kinetic parameters of the reduction of 3-buten-2-one to 3-buten-2-ol; type: biochemical; settings: 0-40 mM 3-buten-2-one, 40 mM NADPH, pH 7.5, 37° C
T1 sequence (Q8KLT9 1-346): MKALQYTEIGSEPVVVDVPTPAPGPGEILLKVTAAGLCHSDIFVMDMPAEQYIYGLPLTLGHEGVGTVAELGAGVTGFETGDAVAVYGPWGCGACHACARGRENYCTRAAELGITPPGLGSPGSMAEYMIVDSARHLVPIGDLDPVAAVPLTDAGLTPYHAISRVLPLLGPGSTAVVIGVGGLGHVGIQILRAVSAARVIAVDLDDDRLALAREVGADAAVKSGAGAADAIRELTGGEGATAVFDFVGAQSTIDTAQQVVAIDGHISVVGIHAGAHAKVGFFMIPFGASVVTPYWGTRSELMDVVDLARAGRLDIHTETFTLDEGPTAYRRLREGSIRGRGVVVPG
Procedure: (§1) The assays were incubated for various time periods (0, 20, 40, 60 120 and 240 min) with shaking at 37° C. […] The reaction products were then extracted with an equal volume of ethyl acetate. 150 μl of the upper ethyl acetate phase was transferred into a clean vial for HPLC analysis. Commercial 3-buten-2-ol (Sigma) was used as reference. […] The mobile phase consisted of 98:2 (v/v) H2O/acetonitrile containing 8.4 mM sulfuric acid. Retention time of 3-buten-2-ol and 3-buten-2-one under these conditions was 3.9 and 5.4 min, respectively.
(§2) The studied enzymatic reaction was carried out under the following conditions at 37° C.:
1 mg/ml alcohol dehydrogenase from R. ruber.
(§3) Reaction volume was 200 μl.
(§4) The assays were incubated for 0, 10, 20, 40, 60 and 120 min with shaking at 37° C. The formation of 3-buten-2-ol was quantified according to the protocol described in Example 8.

[4] = substrate: C=CC(C)=O; experiment: Enzyme-catalyzed reduction of 3-buten-2-one to 3-buten-2-ol, HPLC-based; type: biochemical, Thermoanaerobium brockii; settings: other: 0-40 mM 3-buten-2-one, 40 mM NADPH, 0.1 mM ZnCl2, pH 7.5, 37° C
Procedure: as §2
1 mg/ml alcohol dehydrogenase from Th. brockii
as §3, §1

[5] = substrate: C=CC(C)=O; experiment: Kinetic parameters of the reduction of 3-buten-2-one to 3-buten-2-ol; type: biochemical, Lactobacillus kefiri; settings: other: 0-40 mM 3-buten-2-one, 40 mM NADPH, pH 7.5, 37° C
Procedure: as §1, §2
1 mg/ml alcohol dehydrogenase from L. kefiri.
as §3, §4

[6] = substrate: CC(=O)CC(=O)SCCNC(=O)CCNC(=O)[C@H](O)C(C)(C)COP(=O)(O)OP(=O)(O)OC[C@H]1O[C@@H](n2cnc3c(N)ncnc32)[C@H](O)[C@@H]1OP(=O)(O)O; experiment: purified protein, by the assay type; settings: other: acetoacetyl-CoA variable (0-32 mM), NADPH 60 mM, pH 7.5, 37° C

3-hydroxypropionyl-CoA dehydratase from Sulfolobus tokodaii, SEQ ID NO: 3 (Uniprot F9VNG3), sequence (F9VNG3 1-257): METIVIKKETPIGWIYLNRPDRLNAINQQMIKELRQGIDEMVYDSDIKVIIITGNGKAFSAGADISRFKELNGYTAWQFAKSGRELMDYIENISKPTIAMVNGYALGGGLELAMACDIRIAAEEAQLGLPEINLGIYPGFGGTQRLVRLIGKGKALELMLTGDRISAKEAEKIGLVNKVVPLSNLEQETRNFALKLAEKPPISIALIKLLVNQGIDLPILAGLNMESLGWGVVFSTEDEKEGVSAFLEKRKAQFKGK
linalool dehydratase-isomerase from Castellaniella defragrans (formerly Alcaligenes defragrans), SEQ ID NO: 19, sequence (E1XUJ2 27-397): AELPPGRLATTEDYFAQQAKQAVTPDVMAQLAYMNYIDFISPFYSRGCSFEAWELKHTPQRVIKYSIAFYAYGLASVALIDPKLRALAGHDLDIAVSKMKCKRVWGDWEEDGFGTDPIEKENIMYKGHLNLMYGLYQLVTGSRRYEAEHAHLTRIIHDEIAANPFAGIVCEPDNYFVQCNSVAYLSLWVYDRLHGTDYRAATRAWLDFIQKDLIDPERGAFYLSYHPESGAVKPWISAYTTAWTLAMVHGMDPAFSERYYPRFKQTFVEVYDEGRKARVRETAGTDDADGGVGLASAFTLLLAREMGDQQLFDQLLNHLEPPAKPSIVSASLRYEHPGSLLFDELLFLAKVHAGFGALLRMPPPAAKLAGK

CC(=O)CCO [4-hydroxy-2-butanone] showed a kcat [1] of 0.0075 s⁻¹.

C=CC(C)O (centres unmarked) [3-buten-2-ol] was tested, and the turnover number [2] was “about 10^−4 s^−1 substrate molecule per enzyme active site”.

With C=CC(C)=O [3-buten-2-one] the kcat [3] was “at least 0.03 s^−1”.

B1: Alcohol dehydrogenase from Thermoanaerobacter brockii (Thermoanaerobium brockii), SEQ ID NO: 13 (Uniprot P14941) (Thermoanaerobacter brockii) (protein)
chain: MKGFAMLSIGKVGWIEKEKPAPGPFDAIVRPLAVAPCTSDIHTVFEGAIGERHNMILGHEAVGEVVEVGSEVKDFKPGDRVVVPAITPDWRTSEVQRGYHQHSGGMLAGWKFSNVKDGVFGEFFHVNDADMNLAHLPKEIPLEAAVMIPDMMTTGFHGAELADIELGATVAVLGIGPVGLMAVAGAKLRGAGRIIAVGSRPVCVDAAKYYGATDIVNYKDGPIESQIMNLTEGKGVDAAIIAGGNADIMATAVKIVKPGGTIANVNYFGEGEVLPVPRLEWGCGMAHKTIKGGLCPGGRLRMERLIDLVFYKRVDPSKLVTHVFRGFDNIEKAFMLMKDKPKDLIKPVVILA
In the case of B1, the Km [4] is reported as 100 mM and the kcat [4] is reported as 0.5 s⁻¹.

B2: R-specific alcohol dehydrogenase from Lactobacillus kefiri, SEQ ID NO: 17 (Uniprot Q6WVP7) (Lentilactobacillus kefiri) (protein)
chain: MTDRLKGKVAIVTGGTLGIGLAIADKFVEEGAKVVITGRHADVGEKAAKSIGGTDVIRFVQHDASDEAGWTKLFDTTEEAFGPVTTVVNNAGIAVSKSVEDTTTEEWRKLLSVNLDGVFFGTRLGIQRMKNKGLGASIINMSSIEGFVGDPTLGAYNASKGAVRIMSKSAALDCALKDYDVRVNTVHPGYIKTPLVDDLEGAEEMMSQRTKTPMGHIGEPNDIAWICVYLASDESKFATGAEFVVDGGYTAQ
B2 was tested, and the Km [5] was 19 mM and the kcat [5] was 4 s⁻¹.

B3: Short-chain dehydrogenase/reductase (Fatty alcohol forming acyl-CoA reductase) from Marinobacter aquaeolei VT8, SEQ ID NO: 7 (Uniprot A1U3L3) (Marinobacter … (protein)
chain: MNYFLTGGTGFIGRFLVEKLLARGGTVYVLVREQSQDKLERLRERWGADDKQVKAVIGDLTSKNLGIDAKTLKSLKGNIDHVFHLAAVYDMGADEEAQAATNIEGTRAAVQAAEAMGAKHFHHVSSIAAAGLFKGIFREDMFEEAEKLDHPYLRTKHESEKVVREECKVPFRIYRPGMVIGHSETGEMDKVDGPYYFFKMIQKIRHALPQWVPTIGIEGGRLNIVPVDFVVDALDHIAHLEGEDGNCFHLVDSDPYKVGEILNIFCEAGHAPRMGMRIDSRMFGFIPPFIRQSIKNLPPVKRITGALLDDMGIPPSVMSFINYPTRFDTRELERVLKGTDIEVPRLPSYAPVIWDYWERNLDPDLFKDRTLKGTVEGKVCVVTGATSGIGLATAEKLAEAGAILVIGARTKETLDEVAASLEAKGGNVHAYQCDFSDMDDCDRFVKTVLDNHGHVDVLVNNAGRSIRRSLALSFDRFHDFERTMQLNYFGSVRLIMGFAPAMLERRRGHVVNISSIGVLTNAPRFSAYVSSKSALDAFSRCAAAEWSDRNVTFTTINMPLVKTPMIAPTKIYDSVPTLTPDEAAQMVADAIVYRPKRIATRLGVFAQVLHALAPKMGEIIMNTGYRMFPDSPAAAGSKSGEKPKVSTEQVAFAAIMRGIYW
For B3, the Km [6] was 8 mM and the kcat [6] was 0.1 s⁻¹.

B4: Short chain alcohol dehydrogenase-like protein from Hahella chejuensis, SEQ ID NO: 11 (Uniprot Q2SCE0) (Hahella chejuensis KCTC 2396) (protein)
chain: MNYFVTGGTGFIGRFLVPKLLKRGGTVYLLVREASLPKLDELRERWNASDEQVVGVVGDLAQPMLGVSEKDAAMLRGKVGHFFHLAAIYDMQASAESQEQANIEGTRNAVKLADSLKAACFHHVSSIAAAGLYRGIFREDMFEEAEKLDNPYLRTKHESEKVVREECQTPWRVYRPGMVVGHSKTGEIDKIDGPYYFFKLIQKLRSALPQWMPTVGLEGGRINIVPVDFVVDAMDHIAHAEGEDGKCFHLTDPDPYKVGEILNIFAEAGHAPKMAMRIDARMFGFIPPMIRQGIARLPPVQRMKNAVLNDLGIPDEVMSFINYPTRFDNRETERLLKGTAIAVPRLQDYSPAIWDYWERHLDPDLHKDRTLRGAVEGRVCVITGATSGIGLSAARKLAEAGAKVVIAARTLEKLQEVKKELEELGGEVYEYSVDLSDLEDCDRFVANVLKDLGHVDVLVNNAGRSIRRSIQHAFDRFHDFERTMQLNYFGSLRLIMGFAPSMLERRRGHIVNISSIGVLTNAPRFSAYVASKAALDAFSRCAAAEFSDKNVTFTTINMPLVRTPMISPTKIYDSVPTLTPEEAADLVAEAIIHRPKRIATRLGVFAQVLHSMAPKFSEIIMNTGFKMFPDSSAATGGKDGEKPKVSTEQVAFAAIMRGIHW
B4 gave a Km [6] of 5 mM and a kcat [6] of 0.07 s⁻¹.
